Values belong to the binder of their own block, whether it stands above or below them.
B3: Human Cdc42 residues 1–178, constitutively active mutant G12V (domain or fragment)
chain: not shown
B4: Full-length human IRSp53 (natural protein, UniProt Q9UQB8-4 1-521, looked up)
chain: MSLSRSEEMHRLTENVYKTIMEQFNPSLRNFIAMGKNYEKALAGVTYAAKGYFDALVKMGELASESQGSKELGDVLFQMAEVHRQIQNQLEEMLKSFHNELLTQLEQKVELDSRYLSAALKKYQTEQRSKGDALDKCQAELKKLRKKSQGSKNPQKYSDKELQYIDAISNKQGELENYVSDGYKTALTEERRRFCFLVEKQCAVAKNSAAYHSKGKELLAQKLPLWQQACADPSKIPERAVQLMQQVASNGATLPSALSASKSNLVISDPIPGAKPLPVPPELAPFVGRMSAQESTPIMNGVTGPDGEDYSPWADRKAAQPKSLSPPQSQSKLSDSYSNTLPVRKSVTPKNSYATTENKTLPRSSSMAAGLERNGRMRVKAIFSHAAGDNSTLLSFKEGDLITLLVPEARDGWHYGESEKTKMRGWFPFSYTRVLDSDGSDRLHMSLQQGKSSSTGNLLDKDDLAIPPPDYGAASRAFPAQTASGFKQRPYSVAVPAFSQGLDDYGARSMSSGSGTLVSTV
B5: CRIB–PR domain of IRSp53 (residues 260–291), synthetic peptide (peptide, UniProt Q9UQB8-4 260-291, looked up)
peptide: Ac-ASKSNLVISDPIPGAKPLPVPPELAPFVGRMS-NH2

Key:
Full-length human IRSp53 [1] = target: B4; assay: SEC + other: glycerol gradient sedimentation
[2] = target: B5; assay: ITC
Full-length human IRSp53 [3] = target: B4; assay: ITC
[4] = target: B5; assay: ITC
[5] = target: the molecule itself; assay: SEC + other: glycerol gradient sedimentation
[6] = target: B3; assay: ITC

stoichiometry N (Full-length human IRSp53 [1]): 1 Eps8 per IRSp53 (2:2)
B1: Human Eps8 (natural protein, UniProt Q12929 1-822, looked up)
chain: MNGHISNHPSSFGMYPSQMNGYGSSPTFSQTDREHGSKTSAKALYEQRKNYARDSVSSVSDISQYRVEHLTTFVLDRKDAMITVDDGIRKLKLLDAKGKVWTQDMILQVDDRAVSLIDLESKNELENFPLNTIQHCQAVMHSCSYDSVLALVCKEPTQNKPDLHLFQCDEVKANLISEDIESAISDSKGGKQKRRPDALRMISNADPSIPPPPRAPAPAPPGTVTQVDVRSRVAAWSAWAADQGDFEKPRQYHEQEETPEMMAARIDRDVQILNHILDDIEFFITKLQKAAEAFSELSKRKKNKKGKRKGPGEGVLTLRAKPPPPDEFLDCFQKFKHGFNLLAKLKSHIQNPSAADLVHFLFTPLNMVVQATGGPELASSVLSPLLNKDTIDFLNYTVNGDERQLWMSLGGTWMKARAEWPKEQFIPPYVPRFRNGWEPPMLNFMGATMEQDLYQLAESVANVAEHQRKQEIKRLSTEHSSVSEYHPADGYAFSSNIYTRGSHLDQGEAAVAFKPTSNRHIDRNYEPLKTQPKKYAKSKYDFVARNNSELSVLKDDILEILDDRKQWWKVRNASGDSGFVPNNILDIVRPPESGLGRADPPYTHTIQKQRMEYGPRPADTPPAPSPPPTPAPVPVPLPPSTPAPVPVSKVPANITRQNSSSSDSGGSIVRDSQRHKQLPVDRRKSQMEEVQDELIHRLTIGRSAAQKKFHVPRQNVPVINITYDSTPEDVKTWLQSKGFNPVTVNSLGVLNGAQLFSLNKDELRTVCPEGARVYSQITVQKAALEDSSGSSELQEIMRRRQEKISAAASDSGVESFDEGSSH

Kd [2]: 114 µM
B2: Isolated SH3 domain of IRSp53 (domain or fragment)
chain: NGRMRVKAIFSHAAGDNSTLLSFKEGDLITLLVPEARDGWHYGESEKTKMRGWFPFSYTRVLDS

Binder: B3
Kd (Full-length human IRSp53 [3]): 16.1 µM
fold reduction of the enthalpy of binding against CRIB–PR (Full-length human IRSp53 [3]): 3 fold
stoichiometry N (Full-length human IRSp53 [3]): 1 Cdc42 per CRIB–PR
stoichiometry N [4]: 1 Cdc42 per CRIB–PR

Binder: B4
stoichiometry N [5]: 2

Binder: B5
Kd [6]: 5 µM

Reference: publication PMC4091835 (Nature structural & molecular biology, 2014)
